Experimental data: patent US6271012

Legend:
[1] = target: succinyl-L-alanyl-L-alanyl-L-prolyl-L-phenylalanyl-p-nitroanilide (not provided)
[2] = target: casein (Hammerstein, Merck)
[3] = target: casein (Hammerstein, Merck); remark: listed apart in the source

Substance | kcat/Km (Km in mM and kcat in 1/s) [1] [M⁻¹ s⁻¹] | turnover number (kcat) measured on casein [2] [s⁻¹] | Specific activity relative to PB92 protease (%), ADU method [3] [%]
PB92 protease (serine protease of Bacillus nov. spec. PB92) (enzyme) | 102000 | 90 | 
PB92 protease M216-oxidized (enzyme) | 9000 |  | 50
PB92 protease mutant E134K (enzyme) | 49000 |  | 95
PB92 protease mutant G116V, S126N, P127H, S128I (enzyme) |  |  | 115
PB92 protease mutant G116V, S126Y, P127G, S128L (enzyme) |  |  | 69
PB92 protease mutant M117L, M216Q (enzyme) | 2000 |  | 27
PB92 protease mutant M117L, M216S (enzyme) | 8000 |  | 36
PB92 protease mutant M169I, M216S (enzyme) |  |  | 44
PB92 protease mutant M216C (enzyme) | 30000 |  | 36
PB92 protease mutant M216Q (enzyme) | 3000 |  | 37
PB92 protease mutant M216S (enzyme) | 5000 |  | 40
PB92 protease mutant N212D (enzyme) | 86000 |  | 100
PB92 protease mutant N212S (enzyme) |  |  | 85
PB92 protease mutant S160C (enzyme) | 21000 |  | 48
PB92 protease mutant S160D (enzyme) | 12000 |  | 73
PB92 protease mutant S160K (enzyme) | 11000 |  | 47
PB92 protease mutant [A166D, M169I] (enzyme) |  |  | 100
PB92 protease mutant [G116V, S126F, P127L, S128T] (enzyme) | 19000 |  | 
PB92 protease mutant [G116V, S126G, P127Q, S128I] (enzyme) | 13000 |  | 95
PB92 protease mutant [G116V, S126H, P127Y] (enzyme) |  |  | 73
PB92 protease mutant [G116V, S126L, P127N, S128V] (enzyme) | 65000 |  | 81
PB92 protease mutant [G116V, S126L, P127Q, S128A] (enzyme) | 57000 |  | 62
PB92 protease mutant [G116V, S126R, P127S, S128P] (enzyme) |  |  | 81
PB92 protease mutant [G116V, S126V, P127E, S128K] (enzyme) | 86000 |  | 43
PB92 protease mutant [G116V, S126V, P127M] (enzyme) | 98000 |  | 69
PB92 protease mutant [S126M, P127A, S128G] (enzyme) | 180000 |  | 115
PB92 protease mutant [S160D, M216Q] (enzyme) |  |  | 12
PB92 protease mutant [S160D, M216S] (enzyme) |  |  | 17
PB92 protease mutant [S160G, N212D] (enzyme) | 18000 |  | 76
